Results as given in patent US7589065.

What was measured:
Ala-Ala-Tyr-Ala-Ala = test system: T1, Ala-Ala-Tyr-Ala-Ala
T1 sequence: AAYAA

DnaK (Escherichia coli) = DnaK (Escherichia coli) (UniProt P0A6Y8); experiment: cell-based or functional assay
DnaK (Escherichia coli), sequence (P0A6Y8 2-638 limits assumed): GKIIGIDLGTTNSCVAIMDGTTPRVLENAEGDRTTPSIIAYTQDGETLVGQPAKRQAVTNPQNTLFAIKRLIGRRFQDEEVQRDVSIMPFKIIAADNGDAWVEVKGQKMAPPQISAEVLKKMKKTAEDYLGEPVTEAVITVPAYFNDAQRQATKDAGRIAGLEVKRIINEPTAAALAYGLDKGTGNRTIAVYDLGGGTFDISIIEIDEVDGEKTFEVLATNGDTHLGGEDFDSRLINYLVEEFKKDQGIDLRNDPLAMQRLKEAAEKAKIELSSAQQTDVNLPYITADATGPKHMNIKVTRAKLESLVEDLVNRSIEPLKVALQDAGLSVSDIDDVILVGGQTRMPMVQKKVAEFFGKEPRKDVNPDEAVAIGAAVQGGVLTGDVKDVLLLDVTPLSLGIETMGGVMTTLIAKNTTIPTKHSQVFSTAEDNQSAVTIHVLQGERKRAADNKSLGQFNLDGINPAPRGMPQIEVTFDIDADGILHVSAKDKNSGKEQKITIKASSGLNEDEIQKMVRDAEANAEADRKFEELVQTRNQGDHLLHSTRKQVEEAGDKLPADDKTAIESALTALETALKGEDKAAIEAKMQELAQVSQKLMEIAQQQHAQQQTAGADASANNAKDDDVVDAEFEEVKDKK

| Substance | relative intensity of the cross signal of the Ala-Tyr peptide bond (no addition: 3.50 ± 0.51) (relative intensity) (Ala-Ala-Tyr-Ala-Ala) | relative intensity of the cross signal of the Tyr-Ala peptide bond (no addition: 3.89 ± 0.32) (relative intensity) (Ala-Ala-Tyr-Ala-Ala) | IC50 of the inhibition of the APIase activity of DnaK (spectrophotometric Ala-Leu assay) (DnaK (Escherichia coli)) |
| --- | --- | --- | --- |
| FKBP12 | 3.94 | 2.68 | – |
| substance P (peptide) | – | – | 76 µM |
